Results as given in the supplement of paper PMC10126150.
± gives the standard deviation of the averaged measurements.

System: ATP
Experiment: switch fluorescence ratio, 500 uM ATP over buffer (Cy3 cluster intensity, sum of 5 cycles each) (fold (ratio)); higher = stronger signal-on switching upon ATP binding; sequences stand for … in TCGTCGGCAGCGTCAGATGTGTATAAGAGACAGTTTTTTTTTTTTTTTTTTTTTTTTT…TC
Conditions: aptamer strand: ATP DNA aptamer (quencher-CACCTGGGGGAGTATTGCGGAGGAAGG + anchor), 100 nM annealed; ATP concentration: 500 uM
Method in brief: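 Switching-strand clusters labelled with Cy3 on a modified Illumina MiSeq flow-cell were annealed to 100 nM quencher-labelled ATP aptamer, imaged in selection buffer, and re-imaged after 15 min with 500 uM ATP at 22 °C. This was done over five cycles with NaOH stripping and re-annealing in between. The fluorescence ratio is summed target-cycle over summed buffer-cycle Cy3 intensity per cluster, averaged per switch-domain sequence, excluding clusters outside 100-1000 RFU.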
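Note: ATP exposure 15 min at 22 °C before imaging.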

In the case of GATAATAATT, the switch fluorescence ratio is reported as 0.9969 ± 0.0091.

In the case of GATAATAGTG, the switch fluorescence ratio is reported as 1.08 ± 0.073.

With GATAATATGG the switch fluorescence ratio was 0.9814 ± 0.0094.

GATAATATTT was tested, and the switch fluorescence ratio was 0.986 ± 0.011.

GATAATCGAG gave a switch fluorescence ratio of 1.02 ± 0.018.

In the case of GATAATGAAC, the switch fluorescence ratio is reported as 1.02 ± 0.02.

GATAATTTCT was tested, and the switch fluorescence ratio was 0.9886 ± 0.0046.

For GATACACATG, the switch fluorescence ratio was 1.04 ± 0.021.

GATACATGTG gave a switch fluorescence ratio of 1.048 ± 0.0086.

GATACCCATA gave a switch fluorescence ratio of 0.996 ± 0.016.

For GATACCCTTG, the switch fluorescence ratio was 1.01 ± 0.013.

In the case of GATACGATGG, the switch fluorescence ratio is reported as 0.983 ± 0.027.

GATACTGTAG gave a switch fluorescence ratio of 1.09 ± 0.049.

GATACTGTTG gave a switch fluorescence ratio of 0.988 ± 0.027.

Work on GATAGAAGGT yielded a switch fluorescence ratio of 1.04 ± 0.056.

GATAGATGGC showed a switch fluorescence ratio of 0.989 ± 0.039.

Work on GATAGATTTA yielded a switch fluorescence ratio of 0.9977 ± 0.0033.

Sequence GATAGCCAAT has a switch fluorescence ratio of 1.02 ± 0.016.

Sequence GATAGGAGGA has a switch fluorescence ratio of 1 ± 0.027.

Work on GATAGGGTTT yielded a switch fluorescence ratio of 1.06 ± 0.076.

Work on GATAGGTTCG yielded a switch fluorescence ratio of 0.983 ± 0.016.

With GATAGTAATG the switch fluorescence ratio was 1.01 ± 0.018.

GATAGTACGG showed a switch fluorescence ratio of 1.01 ± 0.015.

GATAGTATTT gave a switch fluorescence ratio of 1.005 ± 0.0066.

GATAGTGAAT showed a switch fluorescence ratio of 0.962 ± 0.028.

For GATAGTGAGA, the switch fluorescence ratio was 1.03 ± 0.011.

GATAGTGAGG showed a switch fluorescence ratio of 0.9935 ± 0.0021.

Work on GATAGTGAGT yielded a switch fluorescence ratio of 0.988 ± 0.016.

GATAGTGCTG showed a switch fluorescence ratio of 1.05 ± 0.12.

In the case of GATAGTGGCA, the switch fluorescence ratio is reported as 1.03 ± 0.023.

With GATAGTGTTG the switch fluorescence ratio was 0.992 ± 0.041.

For GATAGTTGGT, the switch fluorescence ratio was 1 ± 0.021.

Sequence GATATACTTT has a switch fluorescence ratio of 0.99 ± 0.027.

With GATATATCAG the switch fluorescence ratio was 0.9771 ± 0.0017.

GATATGAGCG gave a switch fluorescence ratio of 1.002 ± 0.0018.

GATATGATAC was tested, and the switch fluorescence ratio was 1.077 ± 0.008.

GATATGCCTG gave a switch fluorescence ratio of 1.01 ± 0.069.

With GATATGTGGA the switch fluorescence ratio was 0.995 ± 0.032.

With GATATTAAGC the switch fluorescence ratio was 1.01 ± 0.026.

GATATTAATT showed a switch fluorescence ratio of 0.9784 ± 0.0031.

Work on GATATTAGGC yielded a switch fluorescence ratio of 0.9858 ± 0.009.

With GATATTATTC the switch fluorescence ratio was 1.05 ± 0.079.

Work on GATATTGGTG yielded a switch fluorescence ratio of 1.024 ± 0.003.

GATATTTGGT gave a switch fluorescence ratio of 0.989 ± 0.048.

Sequence GATATTTTTT has a switch fluorescence ratio of 0.989 ± 0.012.

With GATCAATGGG the switch fluorescence ratio was 0.997 ± 0.036.

For GATCAGATGT, the switch fluorescence ratio was 0.958 ± 0.048.

For GATCAGCCCC, the switch fluorescence ratio was 1.02 ± 0.031.

Work on GATCAGTTTT yielded a switch fluorescence ratio of 0.977 ± 0.016.

For GATCATAATA, the switch fluorescence ratio was 0.995 ± 0.043.

GATCATCGGG gave a switch fluorescence ratio of 0.995 ± 0.015.

For GATCATGTAC, the switch fluorescence ratio was 1.14 ± 0.036.

GATCATGTTT gave a switch fluorescence ratio of 0.98194 ± 0.00037.

With GATCATTCTG the switch fluorescence ratio was 0.966 ± 0.036.

In the case of GATCCAAGGG, the switch fluorescence ratio is reported as 1.01 ± 0.021.

For GATCCACGTG, the switch fluorescence ratio was 1.03 ± 0.015.

Work on GATCCCCCCC yielded a switch fluorescence ratio of 1.06 ± 0.03.

GATCCGAGAC showed a switch fluorescence ratio of 1.516 ± 0.0088.

In the case of GATCCGGCGT, the switch fluorescence ratio is reported as 1.03 ± 0.053.

GATCCTTGGG showed a switch fluorescence ratio of 1.022 ± 0.0056.

Sequence GATCGACTTT has a switch fluorescence ratio of 0.958 ± 0.012.

Work on GATCGAGGGA yielded a switch fluorescence ratio of 1.04 ± 0.14.

For GATCGAGTTA, the switch fluorescence ratio was 1.034 ± 0.0073.

In the case of GATCGGCGCG, the switch fluorescence ratio is reported as 0.986 ± 0.025.

GATCGGGGTT gave a switch fluorescence ratio of 0.994 ± 0.036.

With GATCGGTAAA the switch fluorescence ratio was 0.999 ± 0.013.

GATCGTAATT showed a switch fluorescence ratio of 1.06 ± 0.0044.

In the case of GATCGTCTGC, the switch fluorescence ratio is reported as 0.925 ± 0.035.

Sequence GATCTATGTC has a switch fluorescence ratio of 0.989 ± 0.066.

GATCTATGTG was tested, and the switch fluorescence ratio was 1.01 ± 0.042.

GATCTATGTT gave a switch fluorescence ratio of 0.996 ± 0.018.

GATCTGAACT showed a switch fluorescence ratio of 1 ± 0.059.

With GATCTGCACG the switch fluorescence ratio was 0.9947 ± 0.0032.

With GATCTGTCAG the switch fluorescence ratio was 1.01 ± 0.021.

GATCTTGCCT gave a switch fluorescence ratio of 1.02 ± 0.026.

For GATGAAAGTG, the switch fluorescence ratio was 0.99 ± 0.025.

GATGAACGTT showed a switch fluorescence ratio of 0.984 ± 0.041.

In the case of GATGAAGGTG, the switch fluorescence ratio is reported as 1.28 ± 0.061.

GATGAAGTTG was tested, and the switch fluorescence ratio was 0.971 ± 0.029.

GATGAGCCTA gave a switch fluorescence ratio of 1.01 ± 0.073.

Sequence GATGAGGGCG has a switch fluorescence ratio of 1.14 ± 0.23.

GATGAGGGGG was tested, and the switch fluorescence ratio was 1.03 ± 0.09.

GATGAGTATA showed a switch fluorescence ratio of 1 ± 0.021.

GATGAGTGTG gave a switch fluorescence ratio of 0.964 ± 0.041.

Sequence GATGATATGG has a switch fluorescence ratio of 0.9852 ± 0.0039.

In the case of GATGATCTTT, the switch fluorescence ratio is reported as 0.966 ± 0.014.

GATGATTTGG was tested, and the switch fluorescence ratio was 1.02 ± 0.021.

Sequence GATGATTTTG has a switch fluorescence ratio of 0.979 ± 0.047.

With GATGCAAAGG the switch fluorescence ratio was 1.131 ± 0.011.

Sequence GATGCAGTGT has a switch fluorescence ratio of 1.05 ± 0.014.

GATGCAGTTT showed a switch fluorescence ratio of 1.03 ± 0.019.

GATGCGAAAT gave a switch fluorescence ratio of 1.06 ± 0.023.

In the case of GATGCGCGTG, the switch fluorescence ratio is reported as 1 ± 0.019.

GATGCGGCGT gave a switch fluorescence ratio of 1.04 ± 0.021.

GATGCGTATG was tested, and the switch fluorescence ratio was 0.997 ± 0.02.

With GATGCTGGGT the switch fluorescence ratio was 1.01 ± 0.014.

GATGGAACGG gave a switch fluorescence ratio of 1.05 ± 0.039.

With GATGGACGTT the switch fluorescence ratio was 0.995 ± 0.035.

In the case of GATGGACTTT, the switch fluorescence ratio is reported as 1.03 ± 0.013.

GATGGAGTAA gave a switch fluorescence ratio of 1.08 ± 0.042.

Sequence GATGGATAGT has a switch fluorescence ratio of 0.992 ± 0.02.

In the case of GATGGCGGTG, the switch fluorescence ratio is reported as 0.995 ± 0.00091.

GATGGGCACT showed a switch fluorescence ratio of 1.05 ± 0.029.

For GATGGGCGGG, the switch fluorescence ratio was 1.03 ± 0.055.

Work on GATGGGGAGG yielded a switch fluorescence ratio of 0.98 ± 0.032.

GATGGGGGAG showed a switch fluorescence ratio of 0.999 ± 0.018.

Work on GATGGGGGGC yielded a switch fluorescence ratio of 1.01 ± 0.043.

With GATGGGGTTT the switch fluorescence ratio was 1 ± 0.014.

GATGGGTAAA showed a switch fluorescence ratio of 0.992 ± 0.029.

With GATGGTGGTG the switch fluorescence ratio was 1 ± 0.029.

In the case of GATGGTTTGA, the switch fluorescence ratio is reported as 1.02 ± 0.021.

Work on GATGTAAACG yielded a switch fluorescence ratio of 1.02 ± 0.026.

Sequence GATGTAAGAA has a switch fluorescence ratio of 0.993 ± 0.028.

Work on GATGTAAGGT yielded a switch fluorescence ratio of 1.02 ± 0.029.

GATGTAATAG was tested, and the switch fluorescence ratio was 1.57 ± 0.19.

GATGTAGGAG showed a switch fluorescence ratio of 0.971 ± 0.019.

GATGTAGGGC gave a switch fluorescence ratio of 1 ± 0.028.

Sequence GATGTATAGA has a switch fluorescence ratio of 1.01 ± 0.022.

In the case of GATGTATATT, the switch fluorescence ratio is reported as 1.002 ± 0.004.

With GATGTATGTG the switch fluorescence ratio was 1.02 ± 0.042.

Work on GATGTCTAGT yielded a switch fluorescence ratio of 0.983 ± 0.015.

In the case of GATGTCTGGG, the switch fluorescence ratio is reported as 0.959 ± 0.027.

Sequence GATGTGAATT has a switch fluorescence ratio of 1.02 ± 0.011.

Work on GATGTGATTC yielded a switch fluorescence ratio of 1.04 ± 0.027.

GATGTGGGGG showed a switch fluorescence ratio of 0.99 ± 0.028.

GATGTGGGTA gave a switch fluorescence ratio of 0.992 ± 0.045.

With GATGTGGGTG the switch fluorescence ratio was 0.9957 ± 0.0054.

With GATGTGGGTT the switch fluorescence ratio was 1.03 ± 0.032.

In the case of GATGTGTTTT, the switch fluorescence ratio is reported as 0.974 ± 0.02.

Work on GATGTTAAGC yielded a switch fluorescence ratio of 0.9867 ± 0.0095.

Sequence GATGTTATCG has a switch fluorescence ratio of 0.99 ± 0.015.

Work on GATGTTGATT yielded a switch fluorescence ratio of 0.997 ± 0.014.

GATGTTGTGA was tested, and the switch fluorescence ratio was 0.9999 ± 0.0076.

For GATGTTGTTG, the switch fluorescence ratio was 0.997 ± 0.054.

For GATGTTTAGT, the switch fluorescence ratio was 1.04 ± 0.018.

GATTAAAAGG gave a switch fluorescence ratio of 1.017 ± 0.0067.

GATTAAATAG showed a switch fluorescence ratio of 0.9988 ± 0.0032.

GATTAATGGC was tested, and the switch fluorescence ratio was 1.04 ± 0.052.

GATTACATTT gave a switch fluorescence ratio of 1.03 ± 0.022.

GATTAGGGGA gave a switch fluorescence ratio of 1.01 ± 0.015.

Work on GATTAGGGGG yielded a switch fluorescence ratio of 1.02 ± 0.043.

GATTAGTGTT showed a switch fluorescence ratio of 1.01 ± 0.021.

GATTATGGGG was tested, and the switch fluorescence ratio was 1.01 ± 0.013.

For GATTATTGGG, the switch fluorescence ratio was 0.988 ± 0.036.

Sequence GATTCCCTAT has a switch fluorescence ratio of 0.99995 ± 0.00076.

GATTCCTCAT was tested, and the switch fluorescence ratio was 1.015 ± 0.0095.

GATTCGGTCT gave a switch fluorescence ratio of 1.02 ± 0.058.

In the case of GATTCGGTTG, the switch fluorescence ratio is reported as 0.9897 ± 0.0011.

Sequence GATTCGTACG has a switch fluorescence ratio of 1.01 ± 0.016.

GATTCTCGGG showed a switch fluorescence ratio of 1.01 ± 0.016.

GATTCTTATG gave a switch fluorescence ratio of 1.03 ± 0.036.

Sequence GATTCTTGAA has a switch fluorescence ratio of 1.01 ± 0.22.

GATTGAATAT showed a switch fluorescence ratio of 0.983 ± 0.032.

Sequence GATTGAATCC has a switch fluorescence ratio of 1.01 ± 0.059.

Sequence GATTGAATTG has a switch fluorescence ratio of 0.948 ± 0.027.

GATTGAGAAG showed a switch fluorescence ratio of 0.996 ± 0.023.

Work on GATTGAGTAG yielded a switch fluorescence ratio of 0.986 ± 0.016.
